B1: His6-AGR2, purified recombinant, O95994 21-175 (natural protein)
chain: RDTTVKPGAKKDTKDSRPKLPQTLSRGWGDQLIWTQTYEEALYKSKTSNKPLMIIHHLDECPHSQALKKVFAENKEIQKLAEQFVLLNLVYETTDKHLSPDGQYVPRIMFVDPSLTVRADITGRYSNRLYAYEPADTALLLDNMKKALKLLKTEL
B2: wild type AGR2, enforced expression, O95994 21-175 (natural protein)
chain: B1 chain

How the values were obtained:
[1] = biological target: T1, His6-AGR2, purified recombinant, O95994; assay: non-reducing SDS-PAGE and immunoblot of disulfide-bonded complexes; conditions: remark: other sources report otherwise
T1 chain: B1 chain

[2] = biological target: T2, wild type AGR2, enforced expression, O95994; assay: as above; conditions: remark: other sources report otherwise
T2 chain: B1 chain

Row | Binder | stoichiometry N [1] | stoichiometry N [2]
1 | B1 | 2 | 
2 | B2 |  | 2
